# Target: SARS-COV-2 spike protein, isolate USA-WA1/2020, on pseudotyped virus (SARS-COV-2) (UniProt P0DTC2)
# Assay: cell-based or functional assay
substance,measurement,value
DMAb 2130_FcTM (antibody),serum potency (IC50) against USA-WA1/2020 pseudovirus,1 to 2 ng/mL

# From patent publication US20240409619A1
